Assay results: paper PMC4932917, “Structural basis for acyl-group discrimination by human Gcn5L2” (Acta Crystallographica. Section D, Structural Biology, 2016)

Substrate: CC(=O)SCCNC(=O)CCNC(=O)[C@H](O)C(C)(C)COP(=O)(O)OP(=O)(O)OC[C@H]1O[C@@H](n2cnc3c(N)ncnc32)[C@H](O)[C@@H]1OP(=O)(O)O
Test: purified protein
Conditions: acyl-CoA site of the active site

B1: human Gcn5L2 (hsGcn5L2) (Homo sapiens) (protein)
chain: GIIEFHVIGNSLTPKANRRVLLWLVGLQNVFSHQLPRMPKEYIARLVFDPKHKTLALIKDGRVIGGICFRMFPTQGFTEIVFCAVTSNEQVKGYGTHLMNHLKEYHIKHNILYFLTYADEYAIGYFKKQGFSKDIKVPKSRYLGYIKDYEGATLMECELNPRIPYT
B1 was tested, and the Km was 0.91 ± 0.09 µM.
